From PMC6312627
pKd: −log10 of the molar value.

Experiments:
[1] = target: streptavidin-phycoerythrin (SA-PE) (UniProt P22629); assay: bead-based flow cytometry; details: PBSMCT selection buffer (PBS with Mg2+, CaCl2, 0.01% Tween 20; full composition not in material), pH 7.4 or pH 5.2 (HCl); bead assays at RT, MST at 25 C with …
streptavidin (MST) [2] = target: streptavidin (MST) (UniProt P22629); assay: cited; details: PBSMCT selection buffer (PBS with Mg2+, CaCl2, 0.01% Tween 20; full composition not in material), pH 7.4 or pH 5.2 (HCl); bead assays at RT, MST at 25 C with …; cited from earlier work
[3] = target: streptavidin-phycoerythrin (SA-PE) (UniProt P22629); assay: bead-based flow cytometry; details: PBSMCT selection buffer (PBS with Mg2+, CaCl2, 0.01% Tween 20; full composition not in material), pH 7.4 or pH 5.2 (HCl); bead assays at RT, MST at 25 C with …; remark: listed apart in the source
streptavidin (MST) [4] = target: streptavidin (MST) (UniProt P22629); assay: MST; details: PBSMCT selection buffer (PBS with Mg2+, CaCl2, 0.01% Tween 20; full composition not in material), pH 7.4 or pH 5.2 (HCl); bead assays at RT, MST at 25 C with …
streptavidin (MST) [5] = target: streptavidin (MST) (UniProt P22629); assay: MST; details: PBSMCT selection buffer (PBS with Mg2+, CaCl2, 0.01% Tween 20; full composition not in material), pH 7.4 or pH 5.2 (HCl); bead assays at RT, MST at 25 C with …; remark: listed apart in the source

Q: For “ATACCAGCTTATTCAATTATTGACCGCTGTGTGACGCAACACTCAATTCTTGGATCTCGCGGCACACAGATAGTAAGTGCAATCT [S8 G61]”, which binding signal (% reduction vs S8) [1] is on record?
A: 75

Q: With ATTGACCGCTGTGTGACGCAACACTCAAT [SBA29] as the sequence, how does the pKd (streptavidin (MST) [2]) read?
A: 7.40

Q: What about the pKd [1] of the same sequence?
A: 7.98

Q: And the pKd [3]?
A: 8.46

Q: What about the pKd (streptavidin (MST) [4]) of the same sequence?
A: 7.57

Q: What about the pKd (streptavidin (MST) [5]) of the same sequence?
A: 8.21

Q: For “ATACCAGCTTATTCAATTATTGACCGCTGTGTGACGCAACACTCAATTCTTGGATCTCGCTTCACACAGATAGTAAGTGCAATCT [S8 T62]”, which binding signal (% reduction vs S8) [1] is on record?
A: 65

Q: With “ATACCAGCTTATTCAATTATTGACCGCTGTGTGACGCAACACTCAATTCTTGGATCTCGCTGCACACAGATAGTAAGTGCAATCT [S8]” as the sequence, how does the pKd [1] read?
A: 6.95

Q: And the pKd (streptavidin (MST) [5])?
A: 8.00

Q: With “ATACCAGCTTATTCAATTATTGACCGCTGTGTGACGCAACACTCAATACCTTCTCAACGTTCTCTGTAGATAGTAAGTGCAATCT [S3]” as the sequence, how does the pKd [1] read?
A: 7.62
